Data reported in US20220064327A1 (KYMAB, published 2022).

B1: TINA-0616.0128 (antibody, V domains shown)
VH: QVQLIQSGAEVKKPGASVKVSCKASRYSFTSYYMHWVRQAPGQGLEWMGIINPKSGSTSYAQKFQGRVTMTRDTSTSTVYMELSSLRSEDTAVYYCARDGYGSSSRCIQLWGQGTLVTVSS
VL: SYVLTQPPSVSVAPGETARITCGGDNIGRKSVYWYQQKSGQAPVLVIYYDSDRPSGIPERFSGSNSGNTATLTISRVEAGDEADYYCQVWDGSSDHWVFGGGTKLTVL
notes: Monospecific IgG; position is IMGT numbering, not a count on the entry
B2: TINA-0666.0128 (antibody, V domains shown)
VH: QVQLIQSGAEVKKPGASVKVSCKASRYSFTSYYMHWVRQAPGQGLEWMGIINPKSGSTSYAQKFQGRVTMTRDTSTSTVYMELSSLRSEDTAVYYCARDGYGSSSRIIQLWGQGTLVTVSS
VL: SYVLTQPPSVSVAPGETARITCGGDNIGRKSVYWYQQKSGQAPVLVIYYDSDRPSGIPERFSGSNSGNTATLTISRVEAGDEADYYCQVWDGSSDHWVFGGGTKLTVL
notes: Monospecific IgG
B3: NINA-0440.0128 (antibody, V domains shown)
VH: EVQLVESGGGFVQPGGSLRLSCAVSGFTFNSYWMSWVRQAPGKGLEWVANINQDGSEKFYVASVKGRFTMSRDNAKKSVYVQMNSLRAEDTAVYYCAREGYSSNSYYGMDVWGQGTTVTVSS
VL: SYVLTQPPSVSVAPGETARITCGGDNIGRKSVYWYQQKSGQAPVLVIYYDSDRPSGIPERFSGSNSGNTATLTISRVEAGDEADYYCQVWDGSSDHWVFGGGTKLTVL
B4: NINA-0445.0128 (antibody, V domains shown)
VH: EVQLVESGGGFVQPGGSLRLSCAVSGFTFNSYWMSWVRQAPGKGLEWVANINQDGSEKFYVASVKGRFTMSRDNAKKSVYVQMNSLRAEDTAVYYCAREGYSSVSYYGMDVWGQGTTVTVSS
VL: SYVLTQPPSVSVAPGETARITCGGDNIGRKSVYWYQQKSGQAPVLVIYYDSDRPSGIPERFSGSNSGNTATLTISRVEAGDEADYYCQVWDGSSDHWVFGGGTKLTVL
B5: NINA-0456.0128 (antibody, V domains shown)
VH: EVQLVESGGGFVQPGGSLRLSCAVSGFTFNSYWMSWVRQAPGKGLEWVANINQDGSEKFYVASVKGRFTMSRDNAKKSVYVQMNSLRAEDTAVYYCAREGYSSSLYYGMDVWGQGTTVTVSS
VL: SYVLTQPPSVSVAPGETARITCGGDNIGRKSVYWYQQKSGQAPVLVIYYDSDRPSGIPERFSGSNSGNTATLTISRVEAGDEADYYCQVWDGSSDHWVFGGGTKLTVL
B6: NINA-0444.0128 (antibody, V domains shown)
VH: EVQLVESGGGFVQPGGSLRLSCAVSGFTFNSYWMSWVRQAPGKGLEWVANINQDGSEKFYVASVKGRFTMSRDNAKKSVYVQMNSLRAEDTAVYYCAREGYSSTSYYGMDVWGQGTTVTVSS
VL: SYVLTQPPSVSVAPGETARITCGGDNIGRKSVYWYQQKSGQAPVLVIYYDSDRPSGIPERFSGSNSGNTATLTISRVEAGDEADYYCQVWDGSSDHWVFGGGTKLTVL
B7: NINA-0442.0128 (antibody, V domains shown)
VH: EVQLVESGGGFVQPGGSLRLSCAVSGFTFNSYWMSWVRQAPGKGLEWVANINQDGSEKFYVASVKGRFTMSRDNAKKSVYVQMNSLRAEDTAVYYCAREGYSSQSYYGMDVWGQGTTVTVSS
VL: SYVLTQPPSVSVAPGETARITCGGDNIGRKSVYWYQQKSGQAPVLVIYYDSDRPSGIPERFSGSNSGNTATLTISRVEAGDEADYYCQVWDGSSDHWVFGGGTKLTVL
B8: TINA-0215.0128 (antibody, V domains shown)
VH: QVQLVQSGAEVKKPGASVKVSCKASRYSFTSYYMHWVRQAPGQGLEWMGIINPKSGSTSYAQKFQGRVTMTRDTSTSTVYMELSSLRSEDTAVYYCARDGYGSSSRCLQLWGQGTLVTVSS
VL: SYVLTQPPSVSVAPGETARITCGGDNIGRKSVYWYQQKSGQAPVLVIYYDSDRPSGIPERFSGSNSGNTATLTISRVEAGDEADYYCQVWDGSSDHWVFGGGTKLTVL
notes: Monospecific IgG4PE
B9: TINA-0207.0128 (antibody, V domains shown)
VH: QVQLVQSGAEVKKTGASVKVSCKASRYSFTSYYMHWVRQAPGQGLEWMGIINPKSGSTSYAQKFQGRVTMTRDTSTSTVYMELSSLRSEDTAVYYCARDGYGSSSRCLQLWGQGTLVTVSS
VL: SYVLTQPPSVSVAPGETARITCGGDNIGRKSVYWYQQKSGQAPVLVIYYDSDRPSGIPERFSGSNSGNTATLTISRVEAGDEADYYCQVWDGSSDHWVFGGGTKLTVL
notes: Monospecific IgG4PE
B10: TINA-0211.0128 (antibody, V domains shown)
VH: QVQLVQSGAEVKKPGASVKVSCKASRYSFTSYYMHWVRQAPGQGLEWMGIINPKSGSTSYAQKFQGRVTMTRDTSTSTVYMDLSSLRSEDTAVYYCARDGYGSSSRCLQLWGQGTLVTVSS
VL: SYVLTQPPSVSVAPGETARITCGGDNIGRKSVYWYQQKSGQAPVLVIYYDSDRPSGIPERFSGSNSGNTATLTISRVEAGDEADYYCQVWDGSSDHWVFGGGTKLTVL
notes: Monospecific IgG4PE
B11: TINA-0204.0128 (antibody, V domains shown)
VH: QVQLVQSGAEVQKTGASVKVSCKASRYSFTSYYMHWVRQAPGQGLEWMGIINPKSGSTSYAQKFQGRVTMTRDTSTSTVYMELSSLRSEDTAVYYCARDGYGSSSRCLQLWGQGTLVTVSS
VL: SYVLTQPPSVSVAPGETARITCGGDNIGRKSVYWYQQKSGQAPVLVIYYDSDRPSGIPERFSGSNSGNTATLTISRVEAGDEADYYCQVWDGSSDHWVFGGGTKLTVL
notes: Monospecific IgG4PE
B12: TINA-0217.0128 (antibody, V domains shown)
VH: QVQLVQSGAEVTKPGASVKVSCKASRYSFTSYYMHWVRQAPGQGLEWMGIINPKSGSTSYAQKFQGRVTMTRDTSTSTVYMELSSLRSEDTAVYYCARDGYGSSSRCLQLWGQGTLVTVSS
VL: SYVLTQPPSVSVAPGETARITCGGDNIGRKSVYWYQQKSGQAPVLVIYYDSDRPSGIPERFSGSNSGNTATLTISRVEAGDEADYYCQVWDGSSDHWVFGGGTKLTVL
notes: Monospecific IgG4PE
B13: TINA-0203.0128 (antibody, V domains shown)
VH: QVQLVQSGAEVKKPGASVKVSCKASRYSFTSYYMHWVRQAPGQGLEWMGIINPKSGSTSYAQKFQGRVTMTRDTSTSTVYMELISLRSEDTAVYYCARDGYGSSSRCLQLWGQGTLVTVSS
VL: SYVLTQPPSVSVAPGETARITCGGDNIGRKSVYWYQQKSGQAPVLVIYYDSDRPSGIPERFSGSNSGNTATLTISRVEAGDEADYYCQVWDGSSDHWVFGGGTKLTVL
notes: Monospecific IgG4PE
B14: TINA-0209.0128 (antibody, V domains shown)
VH: QVQLVQSGAEVQKPGASVKVSCKASRYSFTSYYLHWVRQAPGQGLEWMGIINPKTGDTSYAQKFQGRVTMTRDTSTTTVYMELSSLRSEDTAVYYCARDGYGSSARCLQLWGQGTLVTVSS
VL: SYVLTQPPSVSVAPGETARITCGGDNIGRKSVYWYQQKSGQAPVLVIYYDSDRPSGIPERFSGSNSGNTATLTISRVEAGDEADYYCQVWDGSSDHWVFGGGTKLTVL
notes: Monospecific IgG4PE
B15: TINA-0214.0128 (antibody, V domains shown)
VH: QVQLVQSGAEVKKTGASVKVSCQASRYSFTSYYMHWVRQAPGQGLEWMGIINPKSGSTSYAQKFQGRVTMTRDTSTSTVYMELSSLRSEDTAVYYCARDGYGSSSRCLQLWGQGTLVTVSS
VL: SYVLTQPPSVSVAPGETARITCGGDNIGRKSVYWYQQKSGQAPVLVIYYDSDRPSGIPERFSGSNSGNTATLTISRVEAGDEADYYCQVWDGSSDHWVFGGGTKLTVL
notes: Monospecific IgG4PE
B16: TINA-0206.0128 (antibody, V domains shown)
VH: QVQLVQSGAEVKKPGASVKVSCKASRYSFTSYYMHWVRQAPGQGLEWMGIINPKSGDTSYAQKFQGRVTMTRDTSTSTVYMDLSSLRSEDTAVYYCARDGYGSSARCLQLWGQGTLVTVSS
VL: SYVLTQPPSVSVAPGETARITCGGDNIGRKSVYWYQQKSGQAPVLVIYYDSDRPSGIPERFSGSNSGNTATLTISRVEAGDEADYYCQVWDGSSDHWVFGGGTKLTVL
notes: Monospecific IgG4PE
B17: TINA-0210.0128 (antibody, V domains shown)
VH: QVQLVQSGAEVKKPGASVKVSCKASRYSFTSYYMHWVRQAPGQGLEWMGIINPKSGSTSYAQKFQGRVTMTRDTSTSTVYMELNSLRSEDTAVYYCARDGYGSSSRCLQLWGQGTLVTVSS
VL: SYVLTQPPSVSVAPGETARITCGGDNIGRKSVYWYQQKSGQAPVLVIYYDSDRPSGIPERFSGSNSGNTATLTISRVEAGDEADYYCQVWDGSSDHWVFGGGTKLTVL
notes: Monospecific IgG4PE

Molecular target: T1, human factor X (human, UniProt P00742 41-179; P00742 183-488)
T1 construct: Zymogen used as analyte in SPR; also called FX; Human FX (MW ~58 KDa)
Test: SPR as in Example 10, human FX as analyte
Method: (§1) Monospecific antibodies (referred as ligand) which had been purified on Protein A were captured onto the anti-human IgG Fc CM4 surface at approximately 2 μg/ml. The ligands were injected for 60 seconds at 10 μl/min in all the active channels of all 8 flow channels. The run was performed at 25° C. using neutral pH HBS-P 1X+CaCl₂ 2.5 mM as running buffer.
(§2) Human FIX (MW ˜55 KDa) or human FX (MW ˜58 KDa) was reconstituted at 1 mg/ml in the running buffer and used as analyte. The analyte was injected in multiple cycle kinetics (MCK) mode at 3 concentrations (1.5 μM, 500 nM and 166.7 nM) with 120 seconds association phase and 200 seconds (for FIX) or 300 seconds (for FX) dissociation phase, at flow rate […] in both active and reference channels. Three injections of 10 mM Glycine pH 1.5 for 60 sec. at 10 μl/min were used for the regeneration phase.
Affinity and kinetics of purified anti-FIX and anti-FX antibodies for binding to their respective antigens was determined by SPR as described in Example 10 above.

T1 sequence (P00742 41-179, chain 1 of 2): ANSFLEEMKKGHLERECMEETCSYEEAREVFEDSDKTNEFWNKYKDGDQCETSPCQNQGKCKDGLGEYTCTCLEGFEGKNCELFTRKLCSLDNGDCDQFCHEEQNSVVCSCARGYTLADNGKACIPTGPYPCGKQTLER
T1 sequence (P00742 183-488, chain 2 of 2): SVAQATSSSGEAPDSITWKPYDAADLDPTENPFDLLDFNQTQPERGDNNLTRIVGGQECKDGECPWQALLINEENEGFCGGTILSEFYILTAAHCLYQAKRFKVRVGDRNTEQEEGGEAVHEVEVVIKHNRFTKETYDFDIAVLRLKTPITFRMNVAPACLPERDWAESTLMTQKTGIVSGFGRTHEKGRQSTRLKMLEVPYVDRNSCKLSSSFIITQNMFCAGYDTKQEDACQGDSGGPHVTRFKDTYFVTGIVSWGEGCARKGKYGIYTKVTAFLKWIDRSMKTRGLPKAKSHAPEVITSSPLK

| Binder | Kd [nM] | koff [s⁻¹] | kon [M⁻¹ s⁻¹] |
| --- | --- | --- | --- |
| B1 | 530 | 0.0222 | 41900 |
| B2 | 927 | 0.0417 | 44900 |

Molecular target: T2, human factor IX (human, UniProt P00740 47-461, 12 glutamic acid residues of the GLA domain are post-translationally γ-carboxylated)
T2 construct: Zymogen used as analyte in SPR, reconstituted at 1 mg/ml; also called FIX; Human FIX (MW ~55 KDa)
Test: SPR, IgG captured on anti-human IgG Fc, human FIX as analyte
Method: (§3) SPR was used to determine the binding affinity (KD) to FIX or FX respectively, the kinetic constants on-rate (kₒₙ) and off-rate (koff). Analyses was performed using a Biacore 8K (GE Healthcare) system.
as §1, §2

T2 sequence (P00740 47-461 limits assumed): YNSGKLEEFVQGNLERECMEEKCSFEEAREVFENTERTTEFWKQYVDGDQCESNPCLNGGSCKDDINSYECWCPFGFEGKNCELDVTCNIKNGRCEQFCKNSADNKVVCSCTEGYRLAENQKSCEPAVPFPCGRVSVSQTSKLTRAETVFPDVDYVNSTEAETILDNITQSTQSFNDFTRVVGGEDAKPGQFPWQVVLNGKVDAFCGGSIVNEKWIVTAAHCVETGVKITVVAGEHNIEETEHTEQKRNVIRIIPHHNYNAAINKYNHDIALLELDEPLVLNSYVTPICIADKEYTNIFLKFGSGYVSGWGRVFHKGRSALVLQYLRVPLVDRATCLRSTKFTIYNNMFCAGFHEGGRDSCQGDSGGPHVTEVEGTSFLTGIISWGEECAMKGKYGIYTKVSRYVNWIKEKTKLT

| Binder | Kd [nM] | koff [s⁻¹] | kon [M⁻¹ s⁻¹] |
| --- | --- | --- | --- |
| B3 | 289 | 0.0535 | 185000 |
| B4 | 267 | 0.0544 | 204000 |
| B5 | 263 | 0.0396 | 151000 |
| B6 | 206 | 0.0445 | 216000 |
| B7 | 242 | 0.0471 | 194000 |

Molecular target: T1, human factor X
Test: SPR, IgG captured on anti-human IgG Fc, human FX as analyte
Method: as §3, §1, §2

| Binder | Kd [nM] | koff [s⁻¹] | kon [M⁻¹ s⁻¹] |
| --- | --- | --- | --- |
| B8 | 1150 | 0.0787 | 68400 |
| B9 | 847 | 0.141 | 166000 |
| B10 | 680 | 0.0447 | 65700 |
| B11 | 718 | 0.0785 | 109000 |
| B12 | 564 | 0.0574 | 102000 |
| B13 | 880 | 0.0598 | 68000 |
| B14 | 1150 | 0.0679 | 59000 |
| B15 | 466 | 0.0558 | 120000 |
| B16 | 992 | 0.0667 | 67200 |
| B17 | 974 | 0.0744 | 76400 |
